For assay [1], the system named is cerebellar granule neurons on rat RGM-like protein-expressing CHO cells. In words: Axon growth assay, coculture of cerebellar granule neurons on RGM-CHO cells. The following applies: 10 μM Y27632 added, 24 hours, compared with control CHO cells. It is filed as cell-based. How it is done:
Cerebellar granule cells from rat pups at 8 days post-natal (P8) were dissociated by trypsinization (0.25% trypsin in PBS, 37° C., 15 minutes); resuspended in serum-containing medium; triturated; and washed three times with PBS. For the coculture assay, neurons were plated onto a confluent monolayer of RGM-CHO cells or control CHO cells in chamber slides. 10 μM Y27632 (Welfide Corporation, Osaka) was added to the cultures to inhibit ROCK (Rho kinase). The cultures were grown for 24 hours in serum-free DMEM/F12 medium.
(§1) For the soluble RGM assay, confluent monolayers of RGM-CHO cells or control CHO cells were incubated in serum-free DMEM/F12 with or without 2.5 U/mL PI-PLC (phosphatidylinositol-specific phospholipase C, Sigma). After the culture were centrifuged for 10 minutes at 13000 g, floating cells were removed by collecting the supernatant. A portion of the supernatant was subjected to Western blot analysis. Neurons were plated on the conditioned media on poly-L-lysine-coated chamber slides and were incubated for 12 or 24 hours. For the axon assay, the cells were fixed with 4% (w/v) paraformaldehyde and immunostained with a monoclonal antibody that recognizes β-tubulin III protein specifically present in neurons (TuJ1, 1:1000, Covance Research Products, Inc., Denver, USA). The length of the longest neurite for each β-tubulin III-positive neuron was then measured.

Assay [2] concerns cerebellar granule neurons. Nature of the assay: Soluble RGM axon growth assay with conditioned media. It is filed as cell-based, rat. The following applies: medium obtained by PI-PLC treatment of RGM-like protein-expressing CHO cells; versus control CHO medium. The procedure: as §1
For assay [3], the system named is RhoA. In words: Affinity precipitation of GTP-RhoA. The following applies: cerebellar neurons from 7-day postnatal rats; 30 minutes after conditioned medium. It is filed as cell-based, rat. The procedure: Cells were lysed in 50 mM Tris (pH 7.5) containing 1% Triton X-100 (TM), 0.5% sodium deoxycholate, 0.1% SDS, 500 mM NaCl, 10 mM MgCl2, 10 μg/mL leupeptin, and 10 μg/mL aprotinin.
The cell lysate was cleared by centrifugation at 4° C. for 10 minutes×13000 g, and the supernatant was incubated for 45 minutes at 4° C. with 20 μg GST-Rho binding domain of Rhotekin beads (TM, Upstate Biotech). The beads were washed four times with washing buffer (50 mM Tris (pH 7.5) containing 1% Triton X-100 (TM), 150 mM NaCl, 10 mM MgCl2, and 10 μg/mL each of leupeptin and aprotinin). Bound Rho was detected by Western blotting using monoclonal antibody against RhoA (Santa Cruz Biotech, Santa Cruz, Calif., USA).
The RhoA activity in neurons was measured. Conditioned medium was added to cerebellar neurons from 7-day postnatal rats and the RhoA activity was measured after 30 minutes had elapsed (FIG. 6).

Results on two molecules are retold here after US20110206671A1, “AXON REGENERATION PROMOTER” (priority 2004, published 2011).

For `CC(N)[C@H]1CC[C@H](C(=O)Nc2ccncc2)CC1` (stereo partly drawn) [Y27632], the “axon growth (average length of the longest axon of each neuron)” value in assay [1] was “axon growth was about the same as for the control”.

B1: RGM-like protein: rat protein homologous to chicken repulsive guidance molecule, released from RGM-CHO cells by PI-PLC; SEQ ID NO: 4 (protein, listed as Rattus norvegicus)
chain: MGRGAGRSALGLWPTLAFLLCSFPAAISPCKILKCNSEFWSATSSGSHAPASDDVPEFCAALRTYALCTRRTARTCRGDLAYHSAVHGIEDLMSQHNCSKDGPTSQPRVRTLPPAGDSQERSDSPEICHYEKSFHKHSAAPNYTHCGLFGDPHLRTFTDHFQTCKVQGAWPLIDNNYLNVQVTNTPVLPGSAATATSKLTIIFKNFQECVDQKVYQAEMDELPSAFADGSKNGGDKHGANSLKITEKVSGQHVEIQAKYIGTTIVVRQVGRYLTFAVRMPEEVVNAVEDRDSQGLYLCLRGCPLNQQIDFQAFRANAESPRRPAAASPSPVVPETFPYETAVAKCKEKLPVEDLYYQACVFDLLTTGDVNFTLAAYYALEDGKMLHSNKDKLHLFERTRELPGAVAAAAFPLAPEMLPGTVTLLVLLPLFW
On to B1, for which the “axon growth of neurons treated with conditioned medium” value in assay [2] is recorded as “significantly inhibited”. The “RhoA activity in neurons (GTP-RhoA)” value in assay [3] was “Rho activation was confirmed”.
